How the values were obtained:
Assay in all cases: EMSA; 3 mM Mg acetate; 30 mM Tris-acetate pH 7.5, 3 mM Mg acetate, 20 mM NaCl, 37 C, 15 min, 100 nM labeled ssDNA; 6% PAGE in TBE
hRAD52 = target: T1, hRAD52 (Homo sapiens, UniProt P43351 1-418); settings: protein: recombinant; tags: C-terminal His6; label: 5'-32P; single strand
T1 sequence: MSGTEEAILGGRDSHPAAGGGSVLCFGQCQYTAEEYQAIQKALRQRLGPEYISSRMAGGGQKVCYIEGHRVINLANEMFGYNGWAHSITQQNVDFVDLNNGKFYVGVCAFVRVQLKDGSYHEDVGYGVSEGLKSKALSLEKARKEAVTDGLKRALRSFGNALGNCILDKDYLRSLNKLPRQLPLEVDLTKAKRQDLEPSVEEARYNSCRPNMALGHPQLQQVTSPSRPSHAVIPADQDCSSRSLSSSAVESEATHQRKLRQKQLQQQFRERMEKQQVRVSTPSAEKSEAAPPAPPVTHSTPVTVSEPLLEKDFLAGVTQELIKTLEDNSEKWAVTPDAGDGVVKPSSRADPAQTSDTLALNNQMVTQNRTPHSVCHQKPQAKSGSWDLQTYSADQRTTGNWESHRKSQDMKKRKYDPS

yRad52 = yRad52 (Saccharomyces cerevisiae, UniProt P06778 1-471); settings: protein: recombinant; tags: C-terminal His6; chain copies: 10; label: 5'-32P; single strand
hRAD52NM = target: T2, hRAD52NM (Homo sapiens, UniProt P43351 1-290); settings: protein: recombinant; tags: C-terminal His6; chain copies: 11; label: 5'-32P; single strand
T2 sequence: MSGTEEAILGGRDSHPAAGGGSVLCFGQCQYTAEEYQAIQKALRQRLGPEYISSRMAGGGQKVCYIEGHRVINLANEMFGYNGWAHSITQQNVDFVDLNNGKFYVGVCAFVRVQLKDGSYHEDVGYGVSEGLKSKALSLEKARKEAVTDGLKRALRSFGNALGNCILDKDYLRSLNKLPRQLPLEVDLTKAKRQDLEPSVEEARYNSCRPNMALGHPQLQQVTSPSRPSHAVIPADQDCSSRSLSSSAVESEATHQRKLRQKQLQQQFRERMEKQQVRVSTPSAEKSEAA

Measured: binding result

Chain of yRad52 (P06778 whole entry): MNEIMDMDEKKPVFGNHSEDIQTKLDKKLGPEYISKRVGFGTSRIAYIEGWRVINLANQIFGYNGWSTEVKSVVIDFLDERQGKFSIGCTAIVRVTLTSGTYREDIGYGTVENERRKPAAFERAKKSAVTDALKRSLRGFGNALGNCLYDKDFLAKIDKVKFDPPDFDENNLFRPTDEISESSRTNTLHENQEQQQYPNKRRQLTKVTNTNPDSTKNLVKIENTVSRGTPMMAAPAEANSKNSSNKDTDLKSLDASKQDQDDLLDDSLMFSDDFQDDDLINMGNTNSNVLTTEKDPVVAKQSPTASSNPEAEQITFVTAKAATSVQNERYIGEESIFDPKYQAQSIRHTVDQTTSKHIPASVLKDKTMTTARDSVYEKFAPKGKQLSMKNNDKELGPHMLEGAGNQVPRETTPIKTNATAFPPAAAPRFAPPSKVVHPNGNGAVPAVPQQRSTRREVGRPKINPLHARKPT

B1: TSO252 (ssDNA)
DNA: TGGTTGAGTACTCACCAGTCACAGAAAAGCATCTTACGGATGGCATGACAGTAAGAGAATTATGCAGTGC
binds: hRAD52 | yRad52 | hRAD52NM

From article PMC4928909, “Roles of C-Terminal Region of Yeast and Human Rad52 in Rad51-Nucleoprotein Filament Formation and ssDNA Annealing”
